The text below walks through data of patent US20220249369.

In data set [1] the test system is T1, CC6, 5FAM-KYLGRSYKV-K(CPQ2)-C.
T1 sequence: KYLGRSYKVKC

Another data set concerns T2, KTTGGRIYGG
T2 sequence: KTTGGRIYGG

A further data set deals with T3, QARGGSK.
T3 sequence: QARGGSK

For data set [2], the system named is T4, CC9, 5FAM-GLQRALEI-K(CPQ2)-k-C.
T4 sequence: GLQRALEIKKC

Plasmin, sequence (P00747 20-580): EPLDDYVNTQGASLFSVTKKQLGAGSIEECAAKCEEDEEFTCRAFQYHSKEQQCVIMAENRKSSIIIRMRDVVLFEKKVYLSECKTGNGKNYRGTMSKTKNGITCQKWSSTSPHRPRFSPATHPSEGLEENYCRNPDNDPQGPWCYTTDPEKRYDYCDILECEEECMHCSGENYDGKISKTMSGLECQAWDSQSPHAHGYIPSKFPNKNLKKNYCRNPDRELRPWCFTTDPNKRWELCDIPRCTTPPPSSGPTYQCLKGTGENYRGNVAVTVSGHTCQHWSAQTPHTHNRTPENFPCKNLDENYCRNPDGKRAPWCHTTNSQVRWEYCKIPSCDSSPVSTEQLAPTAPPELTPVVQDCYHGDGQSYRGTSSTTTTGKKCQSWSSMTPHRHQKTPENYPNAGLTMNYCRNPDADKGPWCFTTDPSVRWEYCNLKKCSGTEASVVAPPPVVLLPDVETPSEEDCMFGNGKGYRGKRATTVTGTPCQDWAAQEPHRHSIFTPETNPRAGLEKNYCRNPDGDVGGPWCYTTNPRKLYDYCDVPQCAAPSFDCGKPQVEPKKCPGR
Plasmin, sequence (P00747 581-810): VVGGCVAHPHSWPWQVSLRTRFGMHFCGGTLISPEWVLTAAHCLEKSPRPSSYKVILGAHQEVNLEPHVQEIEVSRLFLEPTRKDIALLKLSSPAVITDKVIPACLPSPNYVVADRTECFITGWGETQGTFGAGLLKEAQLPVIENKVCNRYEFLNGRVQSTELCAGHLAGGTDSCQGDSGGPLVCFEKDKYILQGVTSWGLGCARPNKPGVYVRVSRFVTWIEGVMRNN

As to Thrombin, the “relative cleavage velocity (L-gate)” value in data set [1] was “adding substrate-1 (KYLGRSYKV (SEQ ID NO:5)) to control b0 (e.g., plasmin) and target bi (e.g., thrombin) at a concentration such that the relative cleavage velocities (rcv) were matched”. The protease cleavage velocity entry is “thrombin cleaving two different peptide substrates (KTTGGRIYGG (SEQ ID NO:2) and QARGGSK (SEQ ID NO:3))” in the data set on KTTGGRIYGG; “thrombin cleaving two different peptide substrates (KTTGGRIYGG (SEQ ID NO:2) and QARGGSK (SEQ ID NO:3))” in the data set with QARGGSK.

In the case of Plasmin, in data set [1], the “relative cleavage velocity (L-gate)” value was “adding substrate-1 (KYLGRSYKV (SEQ ID NO:5)) to control b0 (e.g., plasmin) and target bi (e.g., thrombin) at a concentration such that the relative cleavage velocities (rcv) were matched”; the “relative cleavage velocity (state 1 probability) after the first U-gate” value is 55%. In data set [2], the “relative cleavage velocity (state 0 probability) after the first U-gate” value was 45% and the “relative cleavage velocity (state 0 probability) after the second U-gate (state 0 substrate in large molar excess)” value is reported as 93%.
